The target in this assay is K401-BIO-H6 R210K (Drosophila) (UniProt P17210). The assay can be described thus: AUC.

Broadly, the stoichiometry N is a count of units in the complex or per binding partner. In turn, “K401-BIO-H6 R210K (from UniProt P17210 1-401) (domain or fragment)” showed a stoichiometry N of 2.

As to “K401 (from UniProt P17210 1-401) (domain or fragment)”, the stoichiometry N turned out to be 2.

(Values after PMC2586147.)
